The values below come from patent US20050287136A1.

Test [1] has as its target CTLA-4-Ig(G1) (Repligen, Inc.) (UniProt P16410). In words: IGEN ECL bead assay, CTLA-4-Ig(G1) against B7.2-Ig(G1), antibody 1 ug/ml.
The target is the same in test [2]. Nature of the test: IGEN ECL bead assay, CTLA-4-Ig(G1) against CD28-Ig(G1), antibody 1 ug/ml.

B1: 4.10.2 (antibody, human IgG2, V domains shown)
VH: QVQLVESGGGVVQPGRSLRLSCVASGFIFSSHGIHWVRQAPGKGLEWVAVIWYDGRNKDYADSVKGRFTISRDNSKNTLYLQMNSLRAEDTAVYYCARVAPLGPLDYWGQGTLVTVSS
VL: EFVLTQSPGTLSLSPGERATLSCRASQSISSNFLAWYQQKPGQAPRLLIYRPSSRATGIPDSFSGSGSGTDFTLTISRLEPEDFALYYCQQYGTSPFTFGPGTKVDIK
modifications: chain 1 pos 1: pyroglutamate from Gln (FIG. 9: NH2-Blocked, pQ), written Q
For B1, in test [1], the selectivity ratio CTLA4/B7.2 is > 500 :1. In addition, the selectivity ratio CTLA4/CD28 in test [2] is > 500 :1.
